Measured values as given in publication doi:10.1101/2021.10.28.465226.

Molecular target: SARS-CoV-2 spike heptad repeat 1 (HR1) with C-terminal poly-his tag (SARS-CoV-2)
Test: SPR

Substance: SARS-CoV-2 spike heptad repeat 2 (HR2) peptide
- Kd: 2.24 nM
